Experimental data published in article PMC10864275 (2024).
Like-named read-outs stand apart in the source and are kept apart here.

Columns and labels:
[1] = biological target: T1, avi-β1AR-W (turkey β1-adrenergic receptor, β1AR-MetΔ5 construct with N-terminal biotinylated avi-tag) (turkey, UniProt P07700 1-367, Δ3-32 | Δ244-271 | C358A^8.59 | C116L^3.27 | R68S^1.59 | E130W^3.41 | …, biotin on the avi-tag); test: BLI; isoprenaline
[2] = biological target: T2, avi-β1AR-E (turkey β1-adrenergic receptor, β1AR-E construct with N-terminal biotinylated avi-tag) (turkey, UniProt P07700 1-367, Δ3-32 | Δ244-271 | C358A^8.59 | C116L^3.27 | R68S^1.59 | F327A^7.37 | …, biotin on the avi-tag); test: BLI; isoprenaline
[3] = biological target: T1, avi-β1AR-W (turkey β1-adrenergic …); test: BLI; isoprenaline; remark: listed apart in the source
[4] = biological target: T2, avi-β1AR-E (turkey β1-adrenergic …); test: BLI; salbutamol
[5] = biological target: T1, avi-β1AR-W (turkey β1-adrenergic …); test: BLI; salbutamol
[6] = biological target: T1, avi-β1AR-W (turkey β1-adrenergic …); test: BLI; isoprenaline; remark: listed apart in the source
[7] = biological target: T2, avi-β1AR-E (turkey β1-adrenergic …); test: BLI; isoprenaline; remark: listed apart in the source
[8] = biological target: T1, avi-β1AR-W (turkey β1-adrenergic …); test: BLI; isoprenaline; remark: listed apart in the source
[9] = biological target: T2, avi-β1AR-E (turkey β1-adrenergic …); test: BLI; xamoterol
[10] = biological target: T1, avi-β1AR-W (turkey β1-adrenergic …); test: BLI; xamoterol

T1 sequence (P07700 other isoform, or with tags, fused parts or gaps with the stated changes): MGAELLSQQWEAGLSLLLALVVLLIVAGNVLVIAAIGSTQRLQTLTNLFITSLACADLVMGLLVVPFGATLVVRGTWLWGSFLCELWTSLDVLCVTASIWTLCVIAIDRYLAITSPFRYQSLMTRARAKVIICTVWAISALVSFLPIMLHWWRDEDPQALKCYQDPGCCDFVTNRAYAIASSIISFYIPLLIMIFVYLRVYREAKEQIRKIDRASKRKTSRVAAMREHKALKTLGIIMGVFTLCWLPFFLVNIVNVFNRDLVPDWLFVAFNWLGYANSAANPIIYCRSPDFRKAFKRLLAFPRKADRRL
T2 sequence (P07700 other isoform, or with tags, fused parts or gaps with the stated changes): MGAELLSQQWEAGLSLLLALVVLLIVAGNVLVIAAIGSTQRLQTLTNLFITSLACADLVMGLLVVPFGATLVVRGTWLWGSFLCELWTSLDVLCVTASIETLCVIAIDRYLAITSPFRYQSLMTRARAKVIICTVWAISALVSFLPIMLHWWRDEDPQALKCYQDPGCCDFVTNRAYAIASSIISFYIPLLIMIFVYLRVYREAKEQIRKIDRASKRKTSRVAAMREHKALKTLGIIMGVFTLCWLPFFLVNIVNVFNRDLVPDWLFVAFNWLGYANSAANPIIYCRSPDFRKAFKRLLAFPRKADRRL

| Binder | Kd [1] | koff [2] | koff [3] | Kd [4] | Kd [5] | Kd [6] | koff [7] | koff [8] | Kd [9] | Kd [10] |
| --- | --- | --- | --- | --- | --- | --- | --- | --- | --- | --- |
| mini-Gs/q R70 (domain or fragment) IEKQLQKDKQVYRATHRLLLLGADNSGKSTIVKQMRIYHTSGIFETKFQVDKVNFHMFDVGGQRDERRKWIQCFNDVTAIIFVVDSSDYNRLQEALNDFKSIWNNRWLRTISVILFLNKQDLLAEKVLAGKSKIEDYFPEFARYTTPEDATPEPGEDPRVTRAKYFIRDEFLRISTASGDGRHYCYPHFTCAVDTENARRIFNDCKDIILQMNLREYNLV | 0.534 µM | 0.00343 s⁻¹ | 0.0067 s⁻¹ | – | – | – | – | – | – | – |
| mini-Gs/i R43 with C96A (domain or fragment) IEKQLQKDKQVYRATHRLLLLGADNSGKSTIVKQMRIYHTSGIFETKFQVDKVNFHMFDVGGQRDERRKWIQAFNDVTAIIFVVDSSDYNRLQEALNDFKSIWNNRWLRTISVILFLNKQDLLAEKVLAGKSKIEDYFPEFARYTTPEDATPEPGEDPRVTRAKYFIRDEFLRISTASGDGRHYCYPHFTCAVDTENARRIFNDVTDIIIKMNLRDCGLF | 2.53 µM | 0.00397 s⁻¹ | 0.00623 s⁻¹ | – | – | – | – | – | – | – |
| mini-Go1 R12 (domain or fragment) IEKNLKEDGISAAKDVKLLLLGADNSGKSTIVKQMKIIHTTGIVETHFTFKNLHFRLFDVGGQRSERKKWIHCFEDVTAIIFCVDLSDYNRMHESLMLFDSICNNKFFIDTSIILFLNKKDLFGEKIKKSPLTICFPEYTGPNTYEDAAAYIQAQFESKNRSPNKEIYCHMTCATDTNNAQVIFDAVTDIIIANNLRGCGLY | 7.41 µM | 0.00393 s⁻¹ | 0.00941 s⁻¹ | – | – | – | – | – | – | – |
| mini-Gs 393 with C96A (domain or fragment) GIEKQLQKDKQVYRATHRLLLLGADNSGKSTIVKQMRIYHGGSGGSGGTSGIFETKFQVDKVNFHMFDVGGQRDERRKWIQAFNDVTAIIFVVDSSDYNRLQEALNDFKSIWNNRWLRTISVILFLNKQDLLAEKVLAGKSKIEDYFPEFARYTTPEDATPEPGEDPRVTRAKYFIRDEFLRISTASGDGRHYCYPHFTCAVDTENARRIFNDCRDIIQRMHLRQYELL | – | – | – | 0.962 µM | 1.46 µM | 0.161 µM | 0.00689 s⁻¹ | 0.00625 s⁻¹ | 2.36 µM | 2.97 µM |
